# Source: US20250340881A1, “PHARMACEUTICAL COMPOSITION FOR TREATING CANCER COMPRISING FOXM1 MUTANT OR FOXM1 SHRNA” (Industry-University Cooperation Foundation Hanyang …, priority 2022, published 2025)
# Legend:
# A549 lung cancer cells [1] = assay: Wound healing assay of A549 cells expressing FoxM1 phosphorylated point mutants; assay type: cell-based; conditions: distance in the control group at 72 h set to 0%
# Description: To observe the effects of phosphorylation point mutations on the motility of cancer cells, a wound healing assay was performed in lung cancer cells A549 expressing FoxM1 wild type (WT), phosphorylated point mutants S25E, S361E, and S715E, and a simultaneous triple-point mutation EEE protein.
# Specifically, cells expressing the gene of FoxM1 point mutant by the lentivirus system were seeded into 6-well plates at 1×10^5 cells/well each. 24 hours after cell seeding, scratches were made at regular intervals using a 200 μl-pipette tip. In addition, A549 cells treated with mock as a negative control (Mock) and 5 ng/ml of TGF-β as a positive control were used. […] In addition, the distance in the control group at 72 h was set to 0%, and the relative distance was represented as a bar graph (FIG. 4G).
# A549 cells [2] = assay: IL6, IL1A and CD274 mRNA in A549 cells co-cultured with Jurkat cells; assay type: cell-based; conditions: co-culture with Jurkat 48 h
# A549 lung cancer cells [3] = assay: Cell proliferation assay of A549 cells expressing FoxM1 point mutants; assay type: cell-based; conditions: A549 cells expressing the mutant
# A549 cells [4] = assay: M2d-inducing factor mRNA in A549 cells after co-culture with THP-1 cells; assay type: cell-based; conditions: co-culture with THP-1 48 hours
# Description: In addition, after co-culturing of human monocyte THP-1 cells and cell groups over-expressing FoxM1 point mutations for 48 hours under the conditions where the previous experiments were performed, the mRNA expression levels of M2d-inducing factors IL4, IL6, IL10, and VEGFA in A549 cells expressing FoxM1 S25E were analyzed. […] The amounts of TGFB1 and VEGFA proteins in the medium cultured for 48 h with A549 cells (4×10^4 cells/ml) expressing FoxM1 variants were measured by ELISA.
# A549 cells [5] = assay: PD-L1 (CD274) mRNA in A549 cells by real-time PCR; assay type: cell-based
# Description: (§1) To examine the mRNA expression levels of PD-1 and PD-L1, which are involved in solid tumor immune evasion, in THP-1 cells and the cells expressing the FoxM1 phosphorylated point mutant, the expression of PD-1 (CD279) mRNA, an immune evasion factor, was measured by qRT-PCR in THP-1 monocytes co-cultured with A549^S25E cells for 48 h (FIG. 7B). It was observed that the expression of mRNA of PD-L1 (CD274), an immune evasion factor, increased by 2 folds in the A549^S25E cells expressing the phosphorylated point mutant compared to the control group.
# THP-1 cells = assay: M1 and M2 marker mRNA in THP-1 cells co-cultured with FoxM1-expressing A549 cells; assay type: cell-based, human; conditions: co-culture 48 h
# Description: In the animal tissues, it was confirmed that both PD-L1 protein expression and CD274 mRNA expression were increased in cancer cells expressing FoxM1 (FIG. 5D, 5E). […] From the results described above, we investigated whether FoxM1 phosphorylated point mutant (S25E) affects the polarization of macrophages in the tumor microenvironment. After co-culturing human monocyte THP-1 cells and the cell groups over-expressing FoxM1 point mutants, M1 and M2 markers were examined in THP-1 cells.
# Next, an expression suppression system for suppressing FoxM1 expression was established to observe whether the FoxM1 phosphorylated point mutant (S25E) directly affects polarization to M2 macrophages. First, to inhibit the expression of mRNA of FoxM1, a pLKO-puro.1-hFoxM1 plasmid was produced using a pLKO-puro.1 vector to construct shRNAs targeting nucleotide sequences at 709-729 positions in the human FoxM1 mRNA sequence. The following sequences can be used as target sequences for human FoxM1 shRNA production, and oligonucleotides with the following sequences can be used as primers for shRNA production. The gene accession number for human FoxM1 mRNA in PubMed is NM_001243088.2, and it contains 3507 bp. The following primers were used for shRNA production: 5′-ccgg-[…]-ctcgag-[…]-tttttg-3′ (forward primer) and 5′-aattcaaaaa-AGCAAG AGATGGAGGAAAAGG-ctcgag-[…]-3′ (reverse primer). Then, after purifying and concentrating each lentivirus for expression of the produced FoxM1 shRNA, it was constructed by infecting a lung cancer cell line, A549 cells expressing FoxM1, with the virus. The mRNA expression of M2 markers, CD163, CD206, and VEGFA, was examined after co-culturing lung cancer cells (4×10^4 cells/ml) with suppressed FoxM1 expression and THP-1 cells (1.2×10^5 cells/ml) for 48 h. […] When co-culturing with cancer cells expressing the FoxM1 variant S25E, it was confirmed that the M2 markers CD163, CD206, and VEGFA were all increased by 2 folds or more in THP1 cells compared to the control group (Mock_shCtrl) (FIG. 6D).
# After co-culturing the FoxM1 WT protein over-expressed cancer cells (4×10^4 cells/ml) and THP-1 cells (1.2×10^5 cells/ml) for 48 h, the mRNA expression of M1 markers INOS and IL12B was not altered, while the mRNA expression of all the M2 markers IL10, CD163, CD206, TGFB1, and VEGFA was increased in the FoxM1 WT (FIG. 13A). Among them, CD206, TGFB1, and VEGFA had been known as markers for M2d-tumor-associated macrophages (M2d-TAM) (JAYASINGAM, Sharmilla Devi, et al., Frontiers in Oncology (2020) 9: 1512.).
# THP-1 monocytes = assay: PD-1 (CD279) mRNA in THP-1 monocytes co-cultured with A549 cells; assay type: cell-based, human; conditions: co-culture
# Description: as §1
molecule,measurement,setting,value
"S25E: FoxM1 phosphorylated point mutant of the S25 residue, expressed by lentivirus in A549 cells (protein, listed as Homo sapiens) MKTSPRRPLILKRRRLPLPVQNAPEETSEEEPKRSPAQQESNQAEASKEVAESNSCKFPAGIKIINHPTMPNTQVVAIPNNANIHSIITALTAKGKESGSSGPNKFILISCGGAPTQPPGLRPQTQTSYDAKRTEVTLETLGPKPAARDVNLPRPPGALCEQKRETCDGEAAGCTINNSLSNIQWLRKMSSDGLGSRSIKQEMEEKENCHLEQRQVKVEEPSRPSASWQNSVSERPPYSYMAMIQFAINSTERKRMTLKDIYTWIEDHFPYFKHIAKPGWKNSIRHNLSLHDMFVRETSANGKVSFWTIHPSANRYLTLDQVFKQQQKRPNPELRRNMTIKTELPLGARRKMKPLLPRVSSYLVPIQFPVNQSLVLQPSVKVPLPLAASLMSSELARHSKRVRIAPKVLLAEEGIAPLSSAGPGKEEKLLFGEGFSPLLPVQTIKEEEIQPGEEMPHLARPIKVESPPLEEWPSPAPSFKEESSHSWEDSSQSPTPRPKKSYSGLRSPTRCVSEMLVIQHRERRERSRSRRKQHLLPPCVDEPELLFSEGPSTSRWAAELPFPADSSDPASQLSYSQEVGGPFKTPIKETLPISSTPSKSVLPRTPESWRLTPPAKVGGLDFSPVQTSQGASDPLPDPLGLMDLSTTPLQSAPPLESPQRLLSSEPLDLISVPFGNSSPSDIDVPKPGSPEPQVSGLAANRSLTEGLVLDTMNDSLSKILLDISFPGLDEDPLGPDNINWSQFIPELQ",relative healing distance (motility) at 72 h,A549 lung cancer cells [1],43%
same,"expression of IL6, ILIA and CD274 in A549 cells (in words)",A549 cells [2],significantly low expression
same,mRNA expression of CD274 in A549 cells,A549 cells [2],5 folds
same,mRNA expression of IL6 in A549 cells,A549 cells [2],3.5 folds
same,mRNA expression of ILIA in A549 cells,A549 cells [2],4.5 folds
same,cell proliferation,A549 lung cancer cells [3],did not significantly increase
same,mRNA expression level of IL4 in A549 cells,A549 cells [4],1.8 folds
same,mRNA expression level of IL6 in A549 cells,A549 cells [4],1.8 folds
same,mRNA expression level of IL10 in A549 cells,A549 cells [4],2.2 folds
same,mRNA expression level of VEGFA in A549 cells,A549 cells [4],2.5 folds
same,"mRNA expression level, fifth value printed (factor not named)",A549 cells [4],2.5 folds
same,mRNA expression of PD-L1 (CD274) compared to the control group,A549 cells [5]; A549 cells expressing the protein,2 folds
same,"M2 markers CD163, CD206 and VEGFA in THP1 cells compared to Mock_shCtrl",THP-1 cells,≥ 2 folds
same,mRNA expression of M1 markers INOS and IL12B in THP-1 cells,THP-1 cells,did not change
same,"mRNA expression of M2 markers IL10, CD163, Cd206, TGFB1 and VEGFA in THP-1 cells",THP-1 cells,≥ 2 folds
"S25A: FoxM1 protein with Ser25 substituted with alanine, non-phosphorylated point mutant, expressed by lentivirus in A549 cells (protein, left off: a dimerising Fc or GST, FoxM1 protein with Ser25 substituted with alanine, non-phosphorylated point mutant, expressed by lentivirus in A549 cells) MKTSPRRPLILKRRRLPLPVQNAPAETSEEEPKRSPAQQESNQAEASKEVAESNSCKFPAGIKIINHPTMPNTQVVAIPNNANIHSIITALTAKGKESGSSGPNKFILISCGGAPTQPPGLRPQTQTSYDAKRTEVTLETLGPKPAARDVNLPRPPGALCEQKRETCDGEAAGCTINNSLSNIQWLRKMSSDGLGSRSIKQEMEEKENCHLEQRQVKVEEPSRPSASWQNSVSERPPYSYMAMIQFAINSTERKRMTLKDIYTWIEDHFPYFKHIAKPGWKNSIRHNLSLHDMFVRETSANGKVSFWTIHPSANRYLTLDQVFKQQQKRPNPELRRNMTIKTELPLGARRKMKPLLPRVSSYLVPIQFPVNQSLVLQPSVKVPLPLAASLMSSELARHSKRVRIAPKVLLAEEGIAPLSSAGPGKEEKLLFGEGFSPLLPVQTIKEEEIQPGEEMPHLARPIKVESPPLEEWPSPAPSFKEESSHSWEDSSQSPTPRPKKSYSGLRSPTRCVSEMLVIQHRERRERSRSRRKQHLLPPCVDEPELLFSEGPSTSRWAAELPFPADSSDPASQLSYSQEVGGPFKTPIKETLPISSTPSKSVLPRTPESWRLTPPAKVGGLDFSPVQTSQGASDPLPDPLGLMDLSTTPLQSAPPLESPQRLLSSEPLDLISVPFGNSSPSDIDVPKPGSPEPQVSGLAANRSLTEGLVLDTMNDSLSKILLDISFPGLDEDPLGPDNINWSQFIPELQ",expression of PD-1 mRNA (CD279) in THP-1 monocytes,THP-1 monocytes,highest
same,"mRNA (CD274) expression of PD-L1, reduction compared to the control group",A549 cells [5]; A549 cells expressing the mutant,about 50%
